Results from the nanobody polyreactivity screen of Harvey et al. (2022).

Test: yeast display, Sf9 membrane polyspecificity reagent, FACS + sequencing; frameworks hold sequencing errors
In short: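 A synthetic nanobody library was expressed on Saccharomyces cerevisiae BJ5465 by galactose induction for 36–48 hours. The library was stained for 1 hour at 4 °C with 10% biotinylated, detergent-solubilized Sf9 membrane reagent and enriched with streptavidin microbeads before FACS. Low and high (top ~1%) gates were set on anti-HA fluorescence for expression and streptavidin fluorescence for reagent binding, and each polyreactivity label reflects the gate of origin.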

Sequence	polyreactivity (PSR sort gate)
QVQLVESGGGLVQAGGSLRLSCAASGRTFYYYAMGWYRQAPGKERELVAAITGSGANTYYADSVKGRFTISRDNAKNTVYLQMKSLKPEDTAVYYCNKYRTLRNGWGSGYYYWGQGTQVTVSS	high polyreactivity
QVQLVESGGGIVQAGGSLSLSCAASGRTFIRNAIGCYRQAPGKERELVAAINSGGITNYADSVKGRFTISRDNANNTVYLQMNSLKPEDTAVYYCNARQVLYGLYLRAYPYEYWGQGTQVTVSS	low polyreactivity
QVQLVESGGGLVQAGGSLRLSCAASGGIFYSYAMGWYRQAPGKERELVAAISGRGGSTYYADSVKGRFTISRDNAKNTVYLQMNSLKPEDTAVYYCNALGSQRYDYWGQGTQVTVSS	high polyreactivity
QFQLVESGGGLVQAGGSLRLSCAASGSIFPNYAMGWYRQAPGKDRELVAVITQRGGRTYYADSVKGRFTISRDNAKNTVYLQMNSLKPEDTAVYYCAASYRGVPEYDSWGQGTQVTVSS	low polyreactivity
QVQLVESGGGLVQAGGSLRLSCAASGRIFARYVMGWYRQAPGKERELVAAISRRAGNTYYADSVKGRFTISRDNAKNTVYLQMNSLKPEDTAVYYCAVRYSYYALSTSRYGYWGQGTQVTVSS	high polyreactivity
QVQLVESGGGLVQAGGSLRLSCAASGIIFRYYAMGWYRQAPGKERELVAAISRSGARTYYADTVKGRFTISRDNAKNTVFLQRNSLKPEDTAVYYCATDPTSGRFYYWGQGTQVTVSS	high polyreactivity
QVQLVESGGGLVQAGGSLRLSCAASGSIYAVYAMGWYRPAPGKERELVATISGRGGSTYYADSVKGRFTISRDNAKNTVYLQMNSLKPEDTAVYYCNARVLFRRERMDSWGQGTQVTVSS	high polyreactivity
QVQLVESGGGLVQAGGSLRLSCAASGFTFGYYAMGWYRQAPGKERELVAAITYDGDITYYADSVKGRFTISRDNAKNTVYLQMNSLKPEVTAVYYCNRDVLTFNYDYWGQGTQVTVSS	low polyreactivity
QVQLVESGGGLVQAGGSLRLSCAASGSTFWNYAMGWYRQAPGKERELVASIDSSDGRTYYADSVKGRYTISRDNAKTTVYVQMNSLKPEDTAAYYCAKDAYAVELRPYSKLSSRAVGYWGQGTQVTVSS	low polyreactivity
QVQLVESVVGLVQAGGSLRLSCAASGITFNRNAMGWYIEAPGKERELVAAISSGGSTNYADSVKGRFTISRDNAKNTVYLQMNSLKPEDTAVYYCARAQYWYGKGYYYWGQGTQVTVSS	high polyreactivity
QVQLVESGGGIVQAGGSLRLSCAASGFTYDENAMGWYRQAPGINYSGASTYYAESVKGRFTISRDNAKNTVYLQMNSLKPEDTAVYYCAAEVVAQMNYWGQGTQVTVSS	low polyreactivity
QVQLVESGGGLVQAGGSLRLSCAASGSTFYDYAMGWYRQAPGTEREFVAAISGSAGSTYYADSVKGRFTISRDNAKNTVYLQMNSLKPEDTAVYYCATDYGWEDYNYWGQGTQVTVSS	low polyreactivity
QDQLVESGGGLVQAGGSLRLSCAASGSIIDYYDMGWYRQAPGKEREFVAAINWSGGNTHYADSVKGRFTISRDNAKNTVYLQMNSLKPEDTAVYYCAVDVKIGTDFIGVVIPGDYWGQGTQVTVSS	low polyreactivity
QVQLVESGGGLVQAGGSLRLSCAASGSIFYLYAMGWYRQAPGKERELVAAISWSTSGTYYADSVKGRFTISRDNAKNTVYLQMNSLKPEDTAVYYCAADVYSPWWYDYWGQGTQVTVSS	high polyreactivity
QVQLVESGGGLVQAGGSLRLSCAASGFTFPRYAMGWYRQAPGKERELVAAISTSGDSTYYADSVKGRFTISRDNAKNTVYLQMNSLKPEDTAVYYCAARVVRGRYGYWGQGTQVTVSS	high polyreactivity
QVQLVESGGGLVHAGGSLRLSCAAPGRTSRYYVMGWYRQAPGKERELVAAISKNGGSTYYADSVKGRFTISRDNAKNTVYLQMNSLKPEDTAVYFCAASYYPFSYGHGYDYWGQGTQVTVSS	high polyreactivity

Sequence	polyreactivity (PSR sort gate)
QVQLVESGGGLVQAGGSLRLSCAASGSIFVGNTMGWYRQAPGKERELVAAITWSGGRTYYADSVKGRFTISRDNAKNNVYLQMHSLKPEDTAVYYLKALAYYIRYYYWGKGTQVTVSS	high polyreactivity
QVQLVESGGGLVQAGGSLRLSCAASGSIFNVYGMGWYRQAPGKERELVAAISKSGTSTSYADSVKGRFTISRDNAKNTVYLQMNSLKPEDTAVYYRNAGYRTWWGKKYDYWGQGTQVTVSS	low polyreactivity
QVQLVESGGGLVQAGGSLRISCAPSGFTFIYYDMGWYRQAPGKERELVAAINRGGNTYYADSVKGRFTISRDNAKNTVFLLMNSLKPEDTAVYYCNARSYRRGTWYNSWGQGTKVTVSS	high polyreactivity
QVQIVESGGGLVQAGCSLRLSCAASGSTFLSNAMGLYRQAPGKERELVATNSFSRATYADSVKGRFTISRDNAKNTVYLQMNSLKPVDTAVYYCNRATINFSGKGDTAYDYWGQGTQVTVSS	low polyreactivity
QVQLVESGGGLVQAGGSLRLSCAASGSTFYNNAMGWYRQAPGKERELVAAISNVSTYYADSVKGRFTISRDNAKNTVYLQMNSLKPEDTAVYYCAARGLLWYYSWRYYYWGQGTQVTVSS	low polyreactivity
QVQLVESGGGLVQAGGSLRLSCAASGFTFDAYTMGWYRQAPGKERELVAAINWSGDTTYYADSVKGRFTISRDNAKNTVYFQMNSLKPEDTAVYYCAAVWWIYGVWFDYWGQGTQVTVSS	high polyreactivity
QVQLVESGGGLVQAGGSLRLSCAASGFTIHRYAMGWYRQAPGKERELVAAIRWSGGRTYYADSVKGRFTISRDNAKNTVYLQMNSLKPEDTAVYYCAARTNSPRGYGSDYWGKGTQVTVSS	high polyreactivity
QVQLVESGGGLVQAGGSLRLSCAASGSILYYNAMGWYRQAPGKERELVAAITSGGSTYADSVKGRFTISRDNAKNTVYLQMNSLKPEDTAVYYCAADLDWYLSDYGTSLEHDYWGQGTQVTVSS	low polyreactivity
QVQLVESGGGLVQAGGSLRLSCAASGRIFSRYAMGLYRQAPGKERELVAAITWRGGSTYYADSVKGRFTISRDNAKNTVYLEMNSLKPEDSAVYYCAKYGSGGRQLRSDSWVQGTQVTVSS	high polyreactivity
QVQLVESGGGLVQAGGSLRLSCAASGSTFTLYAMGWYRQAPGKERELVAAISWSSGSTYYADSVKGRFTISRDNAKNTVYLQMNSLKPEDTAVYYCNARRFGLTQYYYWGQGTQVTVSS	low polyreactivity
QVQLVESGGGLVQAGGSLRLSCAASGSTFVNNAMGWYRQAPGKERELVAAIRNTGGRTYYADSVKGRFTISRDNAKNTVYLQMNSLKPEDTAVYYCAALSRVRTLWRMDYWGQGSQVTVSS	high polyreactivity
QVQLVESGGGLVQAGGSLRLSCAASGRILRQYAMGWYRQAPGKERELVAAITSSGGSTYYADSVKGRFTNSRDNAKNTVYLQMNSLKPEDTAVYYCAARYYPSGYRKKMYYWGQGTQVTVSS	high polyreactivity
QVQLVESGGGLVQAGGSLRLSCAASGFTLGLYAMGWYRQAPGKERELVAAITAGGDSTDYADSVKGRFTISRDNAKNTVYLQMNSLKPEDTAVYYCAAPSYWLYYYILDSSDYWGQGTQVTVSS	high polyreactivity
QVQLVESGGGLVQAGASLRLSCAASGRTFEANTMGWYRQAPGKERELVAAITRNGGSTYYADSVKGRFTISRDNAKNTVYLQMNSLKPEDPAVYYCAARSAYRSRHKYDYWGQGTQVTVSS	high polyreactivity
QVQLVESGGGLVQAGGSLRLSCAASGSIFDVNAMGWYRQAPGKERELVASIDNSGTTNYADSVKGRFTISRDNAKNTVYLHMNSLKPEDTAVYYCAKDASLEYSRWGGDYWGQGTQVTVSS	low polyreactivity
QVQLVESGGGLVQAGGSLRLSCAASGRTMNSNAKGSYRQAPGKEREFVAAITSGGSTNYADSVKGRFSLSRDNAKNTVYLQMTSLKPEDTAVYYCAVRGYWTIRCRRYYYWGHGTQVTVSS	high polyreactivity
